Assay results as given in the supplement of paper PMC6755084.

Tested on: F1*sub RNA substrate (template-directed ligation)
Assay: fraction ligated after 30 min (ligated reads / total reads); higher = more ligase activity; sequences stand for … in GAGACCGCAACTGAAAAGTTGT…AGTTCTGCACGTAGAAGCAAAAGGC
Conditions: 42 °C
Procedure: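 Chip-synthesised pool of F1* ligase ribozyme variants (all single and double substitutions, single, double and triple deletions in the catalytic core and GAA bulge, plus designed variants) was transcribed with T7 and reacted as a pool with excess substrate F1*sub for 30 min at 42 C in 50 mM EPPS pH 8.5, 25 mM MgCl2. Ligated and unligated bands were separated by PAGE, barcoded by RT and deep sequenced; fraction ligated = ligated reads / total reads per variant, relative activity = FL / FL of wild type (0.826). Sequences are the DNA template of the ribozyme.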

Row | Sequence | fraction ligated
1 | TACACTGCGTAAGACACTTTGGATGGGTTGA [3d568] | 0.177
2 | TACACTGTCGAAGACACTTTGGATGGGTTGA [3d571] | 0.346
3 | TACACTGTCGTAAACACTTTGGATGGGTTGA [3d573] | 0.181
4 | TACACTGTCGTAAGAACTTTGGATGGGTTGA [3d575] | 0.162
5 | TACACTGTCGTAAGACACTTGGATGGGTTGA [3d578] | 0.394
6 | TACACTGTCGTAAGACACTTTGATGGGTTGA [3d579] | 0.279
7 | TACACTGTCGTAAGACACTTTGGAGGGTTGA [3d581] | 0.292
8 | TACACTGTCGTAAGACACTTTGGATGGGTTA [3d583] | 0.069
9 | TACACTGTCGTAAGACACTTTGGATGGGTTG [3d584] | 0.321
10 | TACACTGTCGTAAGACACTTTGGATGGGTTGA [2d50] | 0.432
11 | TACACTGTCGTAAGACACTTTGGATGGTTGA [3d582] | 0.375
12 | TACACTGTCGTAAGACACTTTGGTGGGTTGA [3d580] | 0.151
13 | TACACTGTCGTAAGACATTTGGATGGGTTGA [3d577] | 0.617
14 | TACACTGTCGTAAGACCTTTGGATGGGTTGA [3d576] | 0.752
15 | TACACTGTCGTAAGCACTTTGGATGGGTTGA [3d574] | 0.463
16 | TACACTGTCGTAGACACTTTGGATGGGTTGA [3d572] | 0.322
17 | TACACTGTCTAAGACACTTTGGATGGGTTGA [3d570] | 0.266
18 | TACACTGTGTAAGACACTTTGGATGGGTTGA [3d569] | 0.632
19 | TACACTTCGTAAGACACTTTGGATGGGTTGA [3d567] | 0.0399
20 | TACACTTGCGAAGACACTTTGGATGGGTTGA [3d603] | 0.157
21 | TACACTTGCGTAAACACTTTGGATGGGTTGA [3d605] | 0.036
22 | TACACTTGCGTAAGAACTTTGGATGGGTTGA [3d607] | 0.015

Row | Sequence | fraction ligated
23 | TACACTTGCGTAAGACACTTGGATGGGTTGA [3d610] | 0.0197
24 | TACACTTGCGTAAGACACTTTGATGGGTTGA [3d611] | 0.0347
25 | TACACTTGCGTAAGACACTTTGGAGGGTTGA [3d613] | 0.044
26 | TACACTTGCGTAAGACACTTTGGATGGGTTA [3d615] | 0.013
27 | TACACTTGCGTAAGACACTTTGGATGGGTTG [3d616] | 0.118
28 | TACACTTGCGTAAGACACTTTGGATGGGTTGA [2d52] | 0.115
29 | TACACTTGCGTAAGACACTTTGGATGGTTGA [3d614] | 0.102
30 | TACACTTGCGTAAGACACTTTGGTGGGTTGA [3d612] | 0.0235
31 | TACACTTGCGTAAGACATTTGGATGGGTTGA [3d609] | 0.422
32 | TACACTTGCGTAAGACCTTTGGATGGGTTGA [3d608] | 0.0714
33 | TACACTTGCGTAAGCACTTTGGATGGGTTGA [3d606] | 0.764
34 | TACACTTGCGTAGACACTTTGGATGGGTTGA [3d604] | 0.0967
35 | TACACTTGCTAAGACACTTTGGATGGGTTGA [3d602] | 0.196
36 | TACACTTGGTAAGACACTTTGGATGGGTTGA [3d601] | 0.0847
37 | TACACTTGTCAAGACACTTTGGATGGGTTGA [3d632] | 0.167
38 | TACACTTGTCGAAACACTTTGGATGGGTTGA [3d647] | 0.16
39 | TACACTTGTCGAAGAACTTTGGATGGGTTGA [3d649] | 0.195
40 | TACACTTGTCGAAGACACTTGGATGGGTTGA [3d652] | 0.109
41 | TACACTTGTCGAAGACACTTTGATGGGTTGA [3d653] | 0.0665
42 | TACACTTGTCGAAGACACTTTGGAGGGTTGA [3d655] | 0.126
43 | TACACTTGTCGAAGACACTTTGGATGGGTTA [3d657] | 0.13
44 | TACACTTGTCGAAGACACTTTGGATGGGTTG [3d658] | 0.593

Row | Sequence | fraction ligated
45 | TACACTTGTCGAAGACACTTTGGATGGGTTGA [2d55] | 0.603
46 | TACACTTGTCGAAGACACTTTGGATGGTTGA [3d656] | 0.505
47 | TACACTTGTCGAAGACACTTTGGTGGGTTGA [3d654] | 0.115
48 | TACACTTGTCGAAGACATTTGGATGGGTTGA [3d651] | 0.444
49 | TACACTTGTCGAAGACCTTTGGATGGGTTGA [3d650] | 0.1
50 | TACACTTGTCGAAGCACTTTGGATGGGTTGA [3d648] | 0.134
51 | TACACTTGTCGAGACACTTTGGATGGGTTGA [3d646] | 0.195
52 | TACACTTGTCGTAAAACTTTGGATGGGTTGA [3d672] | 0.0463
53 | TACACTTGTCGTAAACACTTGGATGGGTTGA [3d675] | 0.0236
54 | TACACTTGTCGTAAACACTTTGATGGGTTGA [3d676] | 0.0132
55 | TACACTTGTCGTAAACACTTTGGAGGGTTGA [3d678] | 0.0486
56 | TACACTTGTCGTAAACACTTTGGATGGGTTA [3d680] | 0.00723
57 | TACACTTGTCGTAAACACTTTGGATGGGTTG [3d681] | 0.0503
58 | TACACTTGTCGTAAACACTTTGGATGGGTTGA [2d57] | 0.0886
59 | TACACTTGTCGTAAACACTTTGGATGGTTGA [3d679] | 0.101
60 | TACACTTGTCGTAAACACTTTGGTGGGTTGA [3d677] | 0.0298
61 | TACACTTGTCGTAAACATTTGGATGGGTTGA [3d674] | 0.457
62 | TACACTTGTCGTAAACCTTTGGATGGGTTGA [3d673] | 0.0569
63 | TACACTTGTCGTAACACTTTGGATGGGTTGA [3d660] | 0.00473
64 | TACACTTGTCGTAAGAACTTGGATGGGTTGA [3d693] | 0.00498
65 | TACACTTGTCGTAAGAACTTTGATGGGTTGA [3d694] | 0.00588
66 | TACACTTGTCGTAAGAACTTTGGAGGGTTGA [3d696] | 0.0171

Row | Sequence | fraction ligated
67 | TACACTTGTCGTAAGAACTTTGGATGGGTTA [3d698] | 0.00405
68 | TACACTTGTCGTAAGAACTTTGGATGGGTTG [3d699] | 0.00593
69 | TACACTTGTCGTAAGAACTTTGGATGGGTTGA [2d59] | 0.0167
70 | TACACTTGTCGTAAGAACTTTGGATGGTTGA [3d697] | 0.0122
71 | TACACTTGTCGTAAGAACTTTGGTGGGTTGA [3d695] | 0.0304
72 | TACACTTGTCGTAAGAATTTGGATGGGTTGA [3d692] | 0.123
73 | TACACTTGTCGTAAGACACTGGATGGGTTGA [3d714] | 0.191
74 | TACACTTGTCGTAAGACACTTGATGGGTTGA [3d715] | 0.0512
75 | TACACTTGTCGTAAGACACTTGGAGGGTTGA [3d717] | 0.0172
76 | TACACTTGTCGTAAGACACTTGGATGGGTTA [3d719] | 0.0331
77 | TACACTTGTCGTAAGACACTTGGATGGGTTG [3d720] | 0.106
78 | TACACTTGTCGTAAGACACTTGGATGGGTTGA [2d62] | 0.183
79 | TACACTTGTCGTAAGACACTTGGATGGTTGA [3d718] | 0.0649
80 | TACACTTGTCGTAAGACACTTGGTGGGTTGA [3d716] | 0.0903
81 | TACACTTGTCGTAAGACACTTTATGGGTTGA [3d721] | 0.0103
82 | TACACTTGTCGTAAGACACTTTGAGGGTTGA [3d723] | 0.0442
83 | TACACTTGTCGTAAGACACTTTGATGGGTTA [3d725] | 0.0317
84 | TACACTTGTCGTAAGACACTTTGATGGGTTG [3d726] | 0.0988
85 | TACACTTGTCGTAAGACACTTTGATGGGTTGA [2d63] | 0.194
86 | TACACTTGTCGTAAGACACTTTGATGGTTGA [3d724] | 0.0498
87 | TACACTTGTCGTAAGACACTTTGGAGGGTTA [3d732] | 0.0323
88 | TACACTTGTCGTAAGACACTTTGGAGGGTTG [3d733] | 0.0821

Row | Sequence | fraction ligated
89 | TACACTTGTCGTAAGACACTTTGGAGGGTTGA [2d65] | 0.182
90 | TACACTTGTCGTAAGACACTTTGGAGGTTGA [3d731] | 0
91 | TACACTTGTCGTAAGACACTTTGGATGGGTT [3d736] | 0.00884
92 | TACACTTGTCGTAAGACACTTTGGATGGGTTA [2d67] | 0.274
93 | TACACTTGTCGTAAGACACTTTGGATGGGTTG [2d68] | 0.758
94 | TACACTTGTCGTAAGACACTTTGGATGGGTTGA [1d3] | 0.748
95 | TACACTTGTCGTAAGACACTTTGGATGGTTA [3d734] | 0.405
96 | TACACTTGTCGTAAGACACTTTGGATGGTTG [3d735] | 0.507
97 | TACACTTGTCGTAAGACACTTTGGATGGTTGA [2d66] | 0.644
98 | TACACTTGTCGTAAGACACTTTGGGGGTTGA [3d727] | 0.0616
99 | TACACTTGTCGTAAGACACTTTGGTGGGTTA [3d729] | 0.00637
100 | TACACTTGTCGTAAGACACTTTGGTGGGTTG [3d730] | 0.035
101 | TACACTTGTCGTAAGACACTTTGGTGGGTTGA [2d64] | 0.153
102 | TACACTTGTCGTAAGACACTTTGGTGGTTGA [3d728] | 0.0111
103 | TACACTTGTCGTAAGACACTTTGTGGGTTGA [3d722] | 0.115
104 | TACACTTGTCGTAAGACATTGGATGGGTTGA [3d707] | 0.239
105 | TACACTTGTCGTAAGACATTTGATGGGTTGA [3d708] | 0.0186
106 | TACACTTGTCGTAAGACATTTGGAGGGTTGA [3d710] | 0.0254
107 | TACACTTGTCGTAAGACATTTGGATGGGTTA [3d712] | 0.0725
108 | TACACTTGTCGTAAGACATTTGGATGGGTTG [3d713] | 0.324
109 | TACACTTGTCGTAAGACATTTGGATGGGTTGA [2d61] | 0.472
